# Source: article doi:10.1101/2024.04.29.591687 (bioRxiv, 2024)
# Target: T1, tGFP-tagged mCLDN5 (mouse, UniProt O54942 1-218)
# T1 sequence: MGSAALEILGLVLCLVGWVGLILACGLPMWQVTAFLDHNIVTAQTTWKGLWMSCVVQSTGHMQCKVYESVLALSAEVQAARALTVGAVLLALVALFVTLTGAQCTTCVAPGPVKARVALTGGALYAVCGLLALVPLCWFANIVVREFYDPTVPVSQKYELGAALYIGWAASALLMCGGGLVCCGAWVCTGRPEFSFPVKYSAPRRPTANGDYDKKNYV
# Assay: MST
binder,measurement,value
ESVLALNAEVQAAR [f1-C5C2],Kd,68.3 µM
